This note sets out measurements from patent US20260150817A1 (LEVERAGEN, published 2026).

For orientation: IC50 means the concentration at which inhibition is half-maximal. Higher therefore signals lower potency.

The target of assay [1] is T1, Spike protein of the COVID-19 Spike-ACE2 Binding Assay Kit (Raybiotech) (SARS-CoV-2, UniProt P0DTC2 319-541).
For assay [2], the target named is T1, Spike protein of the COVID-19 …. The source holds these as a separate data set.

Where two headings read alike, the source gives them in different places.

B1: M2S521_623 Nb-Fc (Fc fusion)
chain: EVQLQQSGPELVKPGASVKISCKASGYTFTDYYMKWEKQSHGKSLEWIGDINPNNGGTRYNQKFRGKATLTVDKSSSTAYMELRSLTSEDSAVYYCARLEDDYYGYAVDYWGQGTSVTVSS
notes: also called LVGN-S521623
The molecule B1 registered an IC50 in assay [1] of 0.13 nM.

B2: MS521_35 Nb-Fc (Fc fusion)
chain: EVQLQQSGPELVKPGASVKISCKASGYTFTDYYMKWVKQRHGQSLEWIGNINPTNGDTNYSQNFKGKATLTVDKSSTTAYMELRSLTSEDSAVYYCARLEDGYYGYAVDYWGQGTSVTVSS
notes: also called LVGN-S52135
Consider B2, for which the IC50 was found to be 0.49 nM in assay [1] and 0.489 nM in assay [2].

B3: M2S521_378 Nb-Fc (Fc fusion)
chain: EVQLQQSGPELVKPGASVKISCKASGYTFTDYYMKWVKQSHGKSLEWIGDINPKNGGTNYNQKFKDKATLTVDKSSSTAYMELRSLTSEDSAVYYCARLEDGYYGYAIDYWSQGTSVTVSS
notes: also called LVGN-S521378
Consider B3, for which the IC50 in assay [1] amounted to 2.2 nM.

B4: M2S521_72 Nb-Fc (Fc fusion)
chain: EVQLQQSGPELVKPGASVKISCKASGYTFTDYYMKWAKQSHGKSLEWIGHINPVNGDTSYNQKFKGKATLTVDKSSSTVYMELRSLTSEDSAVYYCARLEDGYYGYTMDYWGQGTSVTVSS
notes: also called LVGN-S52172
For the molecule B4, the IC50 in assay [1] turned out to be 0.041 nM.

B5: M2S521_193 Nb-Fc (Fc fusion)
chain: EVQLQQSGPELVKPGASVKISCKASGYTFTDYYMKWVKQSHGKSLEWIGDINPNNGGARYNQKFKGRATLTVDKSSSTAYMELRSLTSEDSAVYYCSRLEDGYYGYAVDYWGQGTSVTVSS
notes: also called LVGN-S521193
In assay [1], B5 yielded a half-inhibitory concentration (IC50) of 0.16 nM.

B6: M320_5 Nb-Fc (Fc fusion)
chain: EVQLQQSGPELVKPGASVKMSCKASGYTFTDYYIKWEKQSHGKSLEWIGDINPKNGETFYNQQFKGKATLTVDKSSSTAYMQLNSLTSEDSAVYYCARKEYGDYGYAVDYWGQGTSVTVSS
notes: also called LVGN-S3205
Consider B6, for which the 50% inhibitory concentration (IC50) in assay [1] is 0.4 nM; in assay [2], 0.397 nM.

B7: M2S320_75 Nb-Fc (Fc fusion)
chain: EVQLQQSGPELVKPGASVKMSCKASGYTFTDYYMKWLKQNHGKSLEWIGDINPNNGDTFYNQKFKGKATLTVDTSSSTAYMQLNSLTSEDSAVYYCARKEYGDYGYATDYWGQGTSVTVSS
notes: also called LVGN-S32075
In the case of B7, in assay [1], the concentration for half-maximal inhibition (IC50) came to 0.12 nM.

B8: M2S320_377 Nb-Fc (Fc fusion)
chain: EVQLQQSGPELVKPGASVKMSCKASGYTFTDYYVKWKKQSHGKSLEWIGDINPNNGDTFYNQKFKDKATLTVDKSSSTAYMQLNSLTSEDSAVYYCARKEYGNFGYAVDYWGQGTSVTVSS
notes: also called LVGN-S320377
For B8, the 50% inhibitory concentration (IC50) in assay [1] was 1.6 nM.
